In patent publication US20100325744A1:
One block for each binder: values may come before it.

How the values were obtained:
2F8-HG-T234A (human) = experiment: self-association of HG half-molecules; non-covalent nano-electrospray mass spectrometry
2F8-HG-Y275A (human) [1] = experiment: self-association; non-covalent nano-electrospray mass spectrometry at 0.01-10 µM
2F8-HG-Y275A (human) [2] = experiment: self-association of HG half-molecules; non-covalent nano-electrospray mass spectrometry
2F8-HG-F273L (human) = experiment: as above
2F8-HG-L236A (human) = experiment: as above
2F8-HG-L236V (human) [3] = experiment: self-association; non-covalent nano-electrospray mass spectrometry at 0.01-10 µM
2F8-HG-L236V (human) [4] = experiment: self-association of HG half-molecules; non-covalent nano-electrospray mass spectrometry
2F8-HG-F273A (human) [5] = experiment: self-association; non-covalent nano-electrospray mass spectrometry at 0.01-10 µM
2F8-HG-F273A (human) [6] = experiment: self-association of HG half-molecules; non-covalent nano-electrospray mass spectrometry

- percentage molecules present as monomers (2F8-HG-T234A (human)): > 80%
B1: 2F8-HG-T234A (antibody, part only; not given: 2F8 variable domains, not shown: a dimerising Fc or GST)
heavy, part: ASTKGPSVFPLAPCSRSTSESTAALGCLVKDYFPEPVTVSWNSGALTSGVHTFPAVLQSSGLYSLSSVVTVPSSSLGTKTYTCNVDHKPSNTKVDKRVAPEFLGGPSVFLFPPKPKDTLMISRTPEVTCVVVDVSQEDPEVQFNWYVDGVEVHNAKTKPREEQFNSTYRVVSVLTVLHQDWLNGKEYKCKVSNKGLPSSIEKTISKAKGQPREPQVYTLPPSQEEMTKNQVSLACLVKGFYPSDIAVEWESNGQPENNYKTTPPVLDSDGSFFLYSRLTVDKSRWQEGNVFSCSVMHEALHNHYTQKSLSLSLGK

- percentage monomeric at low concentrations (2F8-HG-Y275A (human) [1]): 100%
- percentage molecules present as monomers (2F8-HG-Y275A (human) [2]): > 80%
B2: 2F8-HG-Y275A (antibody, part only; not given: 2F8 variable domains, not shown: a dimerising Fc or GST)
heavy, part: ASTKGPSVFPLAPCSRSTSESTAALGCLVKDYFPEPVTVSWNSGALTSGVHTFPAVLQSSGLYSLSSVVTVPSSSLGTKTYTCNVDHKPSNTKVDKRVAPEFLGGPSVFLFPPKPKDTLMISRTPEVTCVVVDVSQEDPEVQFNWYVDGVEVHNAKTKPREEQFNSTYRVVSVLTVLHQDWLNGKEYKCKVSNKGLPSSIEKTISKAKGQPREPQVYTLPPSQEEMTKNQVSLTCLVKGFYPSDIAVEWESNGQPENNYKTTPPVLDSDGSFFLASRLTVDKSRWQEGNVFSCSVMHEALHNHYTQKSLSLSLGK

- percentage molecules present as monomers (2F8-HG-F273L (human)): > 80%
B3: 2F8-HG-F273L (antibody, part only; not given: 2F8 variable domains, not shown: a dimerising Fc or GST)
heavy, part: ASTKGPSVFPLAPCSRSTSESTAALGCLVKDYFPEPVTVSWNSGALTSGVHTFPAVLQSSGLYSLSSVVTVPSSSLGTKTYTCNVDHKPSNTKVDKRVAPEFLGGPSVFLFPPKPKDTLMISRTPEVTCVVVDVSQEDPEVQFNWYVDGVEVHNAKTKPREEQFNSTYRVVSVLTVLHQDWLNGKEYKCKVSNKGLPSSIEKTISKAKGQPREPQVYTLPPSQEEMTKNQVSLTCLVKGFYPSDIAVEWESNGQPENNYKTTPPVLDSDGSFLLYSRLTVDKSRWQEGNVFSCSVMHEALHNHYTQKSLSLSLGK

- percentage molecules present as monomers (2F8-HG-L236A (human)): > 80%
B4: 2F8-HG-L236A (antibody, part only; not given: 2F8 variable domains, not shown: a dimerising Fc or GST)
heavy, part: ASTKGPSVFPLAPCSRSTSESTAALGCLVKDYFPEPVTVSWNSGALTSGVHTFPAVLQSSGLYSLSSVVTVPSSSLGTKTYTCNVDHKPSNTKVDKRVAPEFLGGPSVFLFPPKPKDTLMISRTPEVTCVVVDVSQEDPEVQFNWYVDGVEVHNAKTKPREEQFNSTYRVVSVLTVLHQDWLNGKEYKCKVSNKGLPSSIEKTISKAKGQPREPQVYTLPPSQEEMTKNQVSLTCAVKGFYPSDIAVEWESNGQPENNYKTTPPVLDSDGSFFLYSRLTVDKSRWQEGNVFSCSVMHEALHNHYTQKSLSLSLGK

- percentage monomeric at low concentrations (2F8-HG-L236V (human) [3]): 100%
- percentage molecules present as monomers (2F8-HG-L236V (human) [4]): > 80%
B5: 2F8-HG-L236V (antibody, part only; not given: 2F8 variable domains, not shown: a dimerising Fc or GST)
heavy, part: ASTKGPSVFPLAPCSRSTSESTAALGCLVKDYFPEPVTVSWNSGALTSGVHTFPAVLQSSGLYSLSSVVTVPSSSLGTKTYTCNVDHKPSNTKVDKRVAPEFLGGPSVFLFPPKPKDTLMISRTPEVTCVVVDVSQEDPEVQFNWYVDGVEVHNAKTKPREEQFNSTYRVVSVLTVLHQDWLNGKEYKCKVSNKGLPSSIEKTISKAKGQPREPQVYTLPPSQEEMTKNQVSLTCVVKGFYPSDIAVEWESNGQPENNYKTTPPVLDSDGSFFLYSRLTVDKSRWQEGNVFSCSVMHEALHNHYTQKSLSLSLGK

- percentage monomeric at low concentrations (2F8-HG-F273A (human) [5]): 100%
- percentage molecules present as monomers (2F8-HG-F273A (human) [6]): > 80%
B6: 2F8-HG-F273A (antibody, part only; not given: 2F8 variable domains, not shown: a dimerising Fc or GST)
heavy, part: ASTKGPSVFPLAPCSRSTSESTAALGCLVKDYFPEPVTVSWNSGALTSGVHTFPAVLQSSGLYSLSSVVTVPSSSLGTKTYTCNVDHKPSNTKVDKRVAPEFLGGPSVFLFPPKPKDTLMISRTPEVTCVVVDVSQEDPEVQFNWYVDGVEVHNAKTKPREEQFNSTYRVVSVLTVLHQDWLNGKEYKCKVSNKGLPSSIEKTISKAKGQPREPQVYTLPPSQEEMTKNQVSLTCLVKGFYPSDIAVEWESNGQPENNYKTTPPVLDSDGSFALYSRLTVDKSRWQEGNVFSCSVMHEALHNHYTQKSLSLSLGK
